One substance from publication PMC6220479 can be followed below.

Assay [1] deals with TIM-3 expressed on activated human T cells (human (endogenous in activated T cells)) (UniProt Q8TDQ0). Briefly: Scatchard analysis; on activated human T cells.
Assay [2] shares this target.
Assay [3] shares this target. Nature of the assay: flow cytometry on cells; FACS on activated human T cells. Background: Flow cytometry measures light scatter and fluorescence of single cells or particles in a stream.

For orientation: Kd means the equilibrium constant for the complex coming apart. As a reminder, the EC50 is the concentration giving half of the maximal effect. Lower therefore signals greater potency.

Chain of UniProt Q8TDQ0 (Q8TDQ0 22-301): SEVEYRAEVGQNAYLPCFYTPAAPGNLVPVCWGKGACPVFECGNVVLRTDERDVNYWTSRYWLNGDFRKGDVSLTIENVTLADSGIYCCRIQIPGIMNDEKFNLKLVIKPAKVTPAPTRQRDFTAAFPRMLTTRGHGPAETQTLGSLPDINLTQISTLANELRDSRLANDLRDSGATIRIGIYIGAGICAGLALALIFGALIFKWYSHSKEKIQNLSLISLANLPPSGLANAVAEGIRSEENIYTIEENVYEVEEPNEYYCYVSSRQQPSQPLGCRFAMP

In assay [1], “BMS-986258, fully human immunoglobulin (Ig)G1 anti-TIM-3 monoclonal antibody” yielded a Kd of 0.16 nM. The same substance came in with an EC50 in a human tumor TIL assay (IFN-gamma; TIL co-cultured with irradiated CHO-OKT3 cells) in assay [2] of 1.2 nM. The substance further showed an EC50 in assay [3] of 0.1 nM.
